Assay results taken from the supplement of paper PMC9112550, “Optimization of the antimicrobial peptide Bac7 by deep mutational scanning” (BMC Biology, 2022).

Test system: Escherichia coli TOP10
Assay: shrunken log2 fold change of peptide-encoding DNA abundance (4.5 h post-induction vs induction); higher = less antimicrobial activity (less host growth inhibition)
Conditions: time post-induction: 4.5 h; library: site-saturation at positions 5, 18, 19, 20
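Also: peptides expressed intracellularly from a pBAD plasmid library in pooled LB shake-flask culture, induced with 0.3% L-arabinose, DNA abundance read by NGS, three biological replicates, DESeq2 with apeglm shrinkage.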

Sequence | shrunken log2 fold change
RRIRCRPPRLPRPRPRPRAHPRP | 0.361
RRIRSRPPRLPRPRPRPSKYPRP | -0.345
RRIRLRPPRLPRPRPRPDRHPRP | -0.279
RRIRRRPPRLPRPRPRPFSDPRP | -0.311
RRIRERPPRLPRPRPRPQPGPRP | 0.0699
RRIRLRPPRLPRPRPRPKAKPRP | 0.0705
RRIRDRPPRLPRPRPRPKLLPRP | 0.0314
RRIRNRPPRLPRPRPRPMDVPRP | 0.0039
RRIRCRPPRLPRPRPRPACDPRP | 0.389
RRIRHRPPRLPRPRPRPLMMPRP | -0.124
RRIRERPPRLPRPRPRPTLHPRP | -0.0201
RRIRNRPPRLPRPRPRPGEGPRP | 0.196
RRIRGRPPRLPRPRPRPLPTPRP | 1.14
RRIRGRPPRLPRPRPRPQQRPRP | 1.43
RRIRSRPPRLPRPRPRPSLCPRP | -0.0295
RRIRLRPPRLPRPRPRPCKPPRP | -0.1
RRIRYRPPRLPRPRPRPGLRPRP | 0.0396
RRIRFRPPRLPRPRPRPVVEPRP | 0.258
RRIRDRPPRLPRPRPRPGAVPRP | 0.614
RRIRHRPPRLPRPRPRPPGNPRP | 0.133
RRIRTRPPRLPRPRPRPQMAPRP | -0.177
RRIRCRPPRLPRPRPRPHEKPRP | -0.277
RRIRSRPPRLPRPRPRPRYEPRP | -0.12
RRIRDRPPRLPRPRPRPRIMPRP | 0.015
RRIRCRPPRLPRPRPRPPRRPRP | 0.909

Sequence | shrunken log2 fold change
RRIRCRPPRLPRPRPRPWTVPRP | -0.145
RRIRFRPPRLPRPRPRPNWYPRP | -0.542
RRIRYRPPRLPRPRPRPDYMPRP | -0.761
RRIRRRPPRLPRPRPRPYSHPRP | -0.528
RRIRNRPPRLPRPRPRPSSTPRP | -0.201
RRIRDRPPRLPRPRPRPQGAPRP | 0.244
RRIRFRPPRLPRPRPRPYERPRP | -0.119
RRIRCRPPRLPRPRPRPSGHPRP | -0.422
RRIRERPPRLPRPRPRPFPFPRP | -0.629
RRIRIRPPRLPRPRPRPHAMPRP | -0.125
RRIRMRPPRLPRPRPRPFLHPRP | -0.0137
RRIRTRPPRLPRPRPRPFHTPRP | -0.932
RRIRERPPRLPRPRPRPPEIPRP | 0.115
RRIRRRPPRLPRPRPRPKAWPRP | 0.0767
RRIRDRPPRLPRPRPRPPQYPRP | -0.0943
RRIRFRPPRLPRPRPRPDQKPRP | -0.0128
RRIRHRPPRLPRPRPRPQMEPRP | -0.00192
RRIRARPPRLPRPRPRPGNSPRP | -0.108
RRIRHRPPRLPRPRPRPDGAPRP | -0.0729
RRIRWRPPRLPRPRPRPDDLPRP | -0.024
RRIRVRPPRLPRPRPRPGYQPRP | -0.00841
RRIRGRPPRLPRPRPRPPFHPRP | 0.24
RRIRARPPRLPRPRPRPERTPRP | 0.143
RRIRRRPPRLPRPRPRPARRPRP | 0.546
RRIRHRPPRLPRPRPRPFPCPRP | -0.0311

Sequence | shrunken log2 fold change
RRIRERPPRLPRPRPRPFSAPRP | -0.161
RRIRYRPPRLPRPRPRPNDGPRP | -0.0117
RRIRKRPPRLPRPRPRPCHKPRP | 0.0108
RRIRQRPPRLPRPRPRPTKTPRP | 0.298
RRIRIRPPRLPRPRPRPAQHPRP | -0.0384
RRIRTRPPRLPRPRPRPMWEPRP | -0.0158
RRIRSRPPRLPRPRPRPTSYPRP | -0.0485
RRIRNRPPRLPRPRPRPLLWPRP | 0.369
RRIRQRPPRLPRPRPRPLTIPRP | -0.375
RRIRLRPPRLPRPRPRPVAQPRP | 0.391
RRIRSRPPRLPRPRPRPIELPRP | -0.122
RRIRWRPPRLPRPRPRPWESPRP | -0.0449
RRIRHRPPRLPRPRPRPNEDPRP | -0.081
RRIRQRPPRLPRPRPRPNSSPRP | -1.14
RRIRLRPPRLPRPRPRPGRFPRP | 0.226
RRIRLRPPRLPRPRPRPWLVPRP | -0.0391
RRIRVRPPRLPRPRPRPAEWPRP | 0.129
RRIRHRPPRLPRPRPRPTDVPRP | -0.217
RRIRGRPPRLPRPRPRPLTMPRP | 0.763
RRIRVRPPRLPRPRPRPLTHPRP | -0.439
RRIRKRPPRLPRPRPRPGNAPRP | 0.418
RRIRSRPPRLPRPRPRPERAPRP | 0.399
RRIRARPPRLPRPRPRPHHDPRP | -0.0472
RRIRNRPPRLPRPRPRPQMDPRP | 0.0304
RRIRARPPRLPRPRPRPTNHPRP | -0.181
